Laboratory results published in patent publication US20210087522.

Legend:
[1] = target: T1, AFACP, ACP of the FAS from Anabaena
T1 chain: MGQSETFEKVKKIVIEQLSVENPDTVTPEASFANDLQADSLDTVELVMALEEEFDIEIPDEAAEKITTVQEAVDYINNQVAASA

[2] = target: T2, MACP, CP of an uncharacterized NRP/PK gene cluster from M. aeruginosa NIES843
T2 chain: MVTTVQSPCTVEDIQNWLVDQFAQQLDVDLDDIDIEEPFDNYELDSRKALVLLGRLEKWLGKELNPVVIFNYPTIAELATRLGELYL

[3] = target: T3, SsPCP, PCP of a thaxtomin cluster from Streptomyces scabiei 87.22
T3 chain: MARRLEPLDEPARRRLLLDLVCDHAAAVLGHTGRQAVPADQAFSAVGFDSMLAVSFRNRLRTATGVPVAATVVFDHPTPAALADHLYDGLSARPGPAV

[4] = target: T4, APACP, ACP of the glycolipid PKS in Anabaena
T4 chain: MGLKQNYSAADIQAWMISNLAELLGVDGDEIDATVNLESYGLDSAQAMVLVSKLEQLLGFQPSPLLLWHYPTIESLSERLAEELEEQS

[5] = target: T5, FNsACP, homolog of ArCPNp from Fischerella
T5 chain: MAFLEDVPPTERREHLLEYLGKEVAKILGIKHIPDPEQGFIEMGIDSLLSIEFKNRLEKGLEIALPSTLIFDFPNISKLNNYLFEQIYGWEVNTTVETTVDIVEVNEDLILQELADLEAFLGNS

[6] = target: ScACP, ACP of a putative concanamycin gene cluster from Streptomyces coelicolor A(3)2
[7] = target: T6, APNPCP, CP of an uncharacterized NRP/PK gene cluster from Anabaena
T6 chain: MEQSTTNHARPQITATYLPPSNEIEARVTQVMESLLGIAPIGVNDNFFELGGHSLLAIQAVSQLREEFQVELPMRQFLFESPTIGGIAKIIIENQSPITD

[8] = target: T7, SFACP, ACP of the FAS from Synechocystis
T7 chain: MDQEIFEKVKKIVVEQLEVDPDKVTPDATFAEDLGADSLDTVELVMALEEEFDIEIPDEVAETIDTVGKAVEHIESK

[9] = target: T8, FNPCP, CP of an uncharacterized NRP gene cluster from Fischerella
T8 chain: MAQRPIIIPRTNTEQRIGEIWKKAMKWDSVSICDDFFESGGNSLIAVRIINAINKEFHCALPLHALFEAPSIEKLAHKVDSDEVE

[10] = target: AprACP, ACP of the apratoxin (PK/NRP) gene cluster in Lyngbya sp.
[11] = target: T9, FisPCP, PCP of the shinorine gene cluster from Fischerella
T9 chain: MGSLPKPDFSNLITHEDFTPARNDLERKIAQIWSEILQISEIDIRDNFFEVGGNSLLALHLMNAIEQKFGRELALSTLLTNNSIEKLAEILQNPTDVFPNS

B1: MPPT, Sfp-like phosphopantetheinyl transferase (PPTase) from Microcystis aeruginosa NIES843 (protein)
chain: MFISTDEVHLYFISLDPSGDRLETLASLLSEDEIIRANRYHFPEHKRRFLVARGCLREILGSYLAISPEKIEFIYSERGKPSINYQLQFNLSHSEEMAICGLTLTARIGVDLEKMRQMKDLDSLTKRFFCAREHELVEKSAEKEKLFFQLWTAKEAYLKAVGTGISGGLDRVEVGLNPLKLDNVAGEWQLWTAAIGDNYRATVVIEGSDRVIKTFGLSDL
For B1, the Km [1] was 6.9 µM, the kcat [1] was 0.14 s⁻¹ and the kcat/Km [1] was 20000 M⁻¹ s⁻¹. The “phosphopantetheinylation of CP (apo to holo), LC-MS” value (“phosphopantetheinylation of CP” below) [1] was “APPT, AvPPT, MPPT and Sfp functionalized all substrates”, the “relative activity (most active PPTase = 100%)” value [1] was “MPPT showed >84% relative activity toward all nine cyanobacterial CPs” and the Km [2] was 4.9 µM. For the same protein, the kcat [2] was 0.07 s⁻¹, the kcat/Km [2] was 15000 M⁻¹ s⁻¹ and the “phosphopantetheinylation of CP” value [2] was “APPT, AvPPT, MPPT and Sfp functionalized all substrates”. The “relative activity (most active PPTase = 100%)” value [2] was “MPPT showed >84% relative activity toward all nine cyanobacterial CPs including the highest activity on MACP”, the Km [3] was 9.1 µM and the kcat [3] was 0.118 s⁻¹. For the same protein, the kcat/Km [3] was 11700 M⁻¹ s⁻¹, the “phosphopantetheinylation of CP” value [3] was “APPT, AvPPT, MPPT and Sfp functionalized all substrates” and the “relative activity (most active PPTase = 100%)” value [3] was “This enzyme also displayed a modest relative activity toward ScACP and SsPCP”. The Km [4] was 23.1 µM, the kcat [4] was 0.353 s⁻¹ and the kcat/Km [4] was 15000 M⁻¹ s⁻¹. The “phosphopantetheinylation of CP” value [4] was “APPT, AvPPT, MPPT and Sfp functionalized all substrates”, the “relative activity (most active PPTase = 100%)” value [4] was “MPPT showed >84% relative activity toward all nine cyanobacterial CPs” and the Km [5] was 8.3 µM. The kcat [5] was 0.035 s⁻¹, the kcat/Km [5] was 5000 M⁻¹ s⁻¹ and the “phosphopantetheinylation of CP” value [5] was “APPT, AvPPT, MPPT and Sfp functionalized all substrates”. The “relative activity (most active PPTase = 100%)” value [5] was “MPPT showed >84% relative activity toward all nine cyanobacterial CPs”, the Km [6] was 12.4 µM and the kcat [6] was 0.0433 s⁻¹. For the same protein, the kcat/Km [6] was 3330 M⁻¹ s⁻¹, the “phosphopantetheinylation of CP” value [6] was “APPT, AvPPT, MPPT and Sfp functionalized all substrates” and the “relative activity (most active PPTase = 100%)” value [6] was “This enzyme also displayed a modest relative activity toward ScACP and SsPCP”. It also gave a Km [7] of 9.5 µM, a kcat [7] of 0.0317 s⁻¹ and a kcat/Km [7] of 3330 M⁻¹ s⁻¹. For the same protein, the “phosphopantetheinylation of CP” value [7] was “APPT, AvPPT, MPPT and Sfp functionalized all substrates”, the “relative activity (most active PPTase = 100%)” value [7] was “MPPT showed >84% relative activity toward all nine cyanobacterial CPs” and the Km [8] was 3.2 µM. The “growth of Synechocystis mutant with the SPPT gene replaced” value [8] was “demonstrated their in vivo function as activating SFACP for the synthesis of essential fatty acids”, the kcat [8] was 0.02 s⁻¹ and the kcat/Km [8] was 6670 M⁻¹ s⁻¹. For the same protein, the “phosphopantetheinylation of CP” value [8] was “APPT, AvPPT, MPPT and Sfp functionalized all substrates”, the “relative activity (most active PPTase = 100%)” value [8] was “MPPT showed >84% relative activity toward all nine cyanobacterial CPs” and the Km [9] was 7.2 µM. For the same protein, the kcat [9] was 0.16 s⁻¹, the kcat/Km [9] was 21700 M⁻¹ s⁻¹ and the “phosphopantetheinylation of CP” value [9] was “APPT, AvPPT, MPPT and Sfp functionalized all substrates”. For the same protein, the “relative activity (most active PPTase = 100%)” value [9] was “MPPT showed >84% relative activity toward all nine cyanobacterial CPs”, the Km [10] was 9.1 µM and the kcat [10] was 0.173 s⁻¹. For the same protein, the kcat/Km [10] was 18300 M⁻¹ s⁻¹, the “phosphopantetheinylation of CP” value [10] was “APPT, AvPPT, MPPT and Sfp functionalized all substrates” and the “relative activity (most active PPTase = 100%)” value [10] was “MPPT showed >84% relative activity toward all nine cyanobacterial CPs”. For the same protein, the Km [11] was 7.2 µM, the kcat [11] was 0.0317 s⁻¹ and the kcat/Km [11] was 5000 M⁻¹ s⁻¹. For the same protein, the “phosphopantetheinylation of CP” value [11] was “APPT, AvPPT, MPPT and Sfp functionalized all substrates” and the “relative activity (most active PPTase = 100%)” value [11] was “MPPT showed >84% relative activity toward all nine cyanobacterial CPs”.

B2: APPT, Sfp-like phosphopantetheinyl transferase (PPTase) from Anabaena sp. PCC7120 (protein)
chain: MLQHTWLPKPPNLTLLSDEVHLWRIPLDQPESQLQDLAATLSSDELARANRFYFPEHRRRFTAGRGILRSILGGYLGVEPGQVKFDYESRGKPILGDRFAESGLLFNLSHSQNLALCAVNYTRQIGIDLEYLRPTSDLESLAKRFFLPREYELLRSLPDEQKQKIFFRYWTCKEAYLKATGDGIAKLEEIEIALTPTEPAKLQTAPAWSLLELVPDDNCVAAVAVAGFGWQPKFWHY
B2 gave a Km [1] of 6.8 µM, a kcat [1] of 0.195 s⁻¹ and a kcat/Km [1] of 28300 M⁻¹ s⁻¹. The “phosphopantetheinylation of CP” value [1] was “APPT, AvPPT, MPPT and Sfp functionalized all substrates”, the Km [2] was 7.9 µM and the kcat [2] was 0.0617 s⁻¹. The kcat/Km [2] was 8330 M⁻¹ s⁻¹, the “phosphopantetheinylation of CP” value [2] was “APPT, AvPPT, MPPT and Sfp functionalized all substrates” and the Km [3] was 7.4 µM. The kcat [3] was 0.127 s⁻¹, the kcat/Km [3] was 16700 M⁻¹ s⁻¹ and the “phosphopantetheinylation of CP” value [3] was “APPT, AvPPT, MPPT and Sfp functionalized all substrates”. It also gave a Km [4] of 10 µM, a kcat [4] of 0.283 s⁻¹ and a kcat/Km [4] of 26700 M⁻¹ s⁻¹. The “phosphopantetheinylation of CP” value [4] was “APPT, AvPPT, MPPT and Sfp functionalized all substrates”, the Km [5] was 8.4 µM and the kcat [5] was 0.0367 s⁻¹. The kcat/Km [5] was 5000 M⁻¹ s⁻¹, the “phosphopantetheinylation of CP” value [5] was “APPT, AvPPT, MPPT and Sfp functionalized all substrates” and the Km [6] was 14.1 µM. For the same protein, the kcat [6] was 0.09 s⁻¹, the kcat/Km [6] was 6670 M⁻¹ s⁻¹ and the “phosphopantetheinylation of CP” value [6] was “APPT, AvPPT, MPPT and Sfp functionalized all substrates”. For the same protein, the Km [7] was 1.6 µM, the kcat [7] was 0.0167 s⁻¹ and the kcat/Km [7] was 10000 M⁻¹ s⁻¹. The “phosphopantetheinylation of CP” value [7] was “APPT, AvPPT, MPPT and Sfp functionalized all substrates”, the Km [8] was 2.8 µM and the kcat [8] was 0.0267 s⁻¹. For the same protein, the kcat/Km [8] was 10000 M⁻¹ s⁻¹, the “phosphopantetheinylation of CP” value [8] was “APPT, AvPPT, MPPT and Sfp functionalized all substrates” and the Km [9] was 12.1 µM. For the same protein, the kcat [9] was 0.203 s⁻¹, the kcat/Km [9] was 16700 M⁻¹ s⁻¹ and the “phosphopantetheinylation of CP” value [9] was “APPT, AvPPT, MPPT and Sfp functionalized all substrates”. For the same protein, the Km [10] was 7.8 µM, the kcat [10] was 0.238 s⁻¹ and the kcat/Km [10] was 30000 M⁻¹ s⁻¹. The “phosphopantetheinylation of CP” value [10] was “APPT, AvPPT, MPPT and Sfp functionalized all substrates”, the Km [11] was 7.1 µM and the kcat [11] was 0.0383 s⁻¹. The kcat/Km [11] was 5000 M⁻¹ s⁻¹ and the “phosphopantetheinylation of CP” value [11] was “APPT, AvPPT, MPPT and Sfp functionalized all substrates”.

B3: AvPPT, Sfp-like phosphopantetheinyl transferase (PPTase) from Anabaena variabilis ATCC29413 (protein)
chain: MLQHTWLPKPPNLTLLSDEVHLWRIPLDRPESQLQHLAATLSSDELARANRFYFPEHRQRFTAGRGILRSILGLYLGVEPKQVKFEYESRGKPVLGDRFADSGLLFNLSHSQNLGLCAVNYTRQIGIDLEYLRPTSDLESLAKRFFLPREYELLRSLPDEQKQKIFFRYWTCKEAYLKATGDGIAKLEEIEIALTPTEPAKLQTTPAWSLLELVPDDNCVAAVAVAGFGWQPKFWQY
B3 was tested, and the “phosphopantetheinylation of CP” value [1] was “APPT, AvPPT, MPPT and Sfp functionalized all substrates”, the “phosphopantetheinylation of CP” value [2] was “APPT, AvPPT, MPPT and Sfp functionalized all substrates” and the “phosphopantetheinylation of CP” value [3] was “APPT, AvPPT, MPPT and Sfp functionalized all substrates”. The “phosphopantetheinylation of CP” value [4] was “APPT, AvPPT, MPPT and Sfp functionalized all substrates”, the “phosphopantetheinylation of CP” value [5] was “APPT, AvPPT, MPPT and Sfp functionalized all substrates” and the “phosphopantetheinylation of CP” value [6] was “APPT, AvPPT, MPPT and Sfp functionalized all substrates”. For the same protein, the “phosphopantetheinylation of CP” value [7] was “APPT, AvPPT, MPPT and Sfp functionalized all substrates”, the “phosphopantetheinylation of CP” value [8] was “APPT, AvPPT, MPPT and Sfp functionalized all substrates” and the “phosphopantetheinylation of CP” value [9] was “APPT, AvPPT, MPPT and Sfp functionalized all substrates”. The “phosphopantetheinylation of CP” value [10] was “APPT, AvPPT, MPPT and Sfp functionalized all substrates” and the “phosphopantetheinylation of CP” value [11] was “APPT, AvPPT, MPPT and Sfp functionalized all substrates”.
